According to publication PMC6196983, “The Native Monomer of Bacillus Pumilus Ribonuclease Does Not Exist Extracellularly” (BioMed Research International, 2018):

Target: the molecule itself
Test: NMR self-diffusion (hydrodynamic radius); 1.5 mg/ml binase in D2O at pH 3.0 and pH 6.4; BPP-LED stimulated echo, 600.13 MHz; radius from the Stokes-Einstein equation compared with the theoretical monomer size of 1.6 nm

B1: binase, secreted guanyl-preferring ribonuclease of Bacillus pumilus (enzyme, UniProt P00649 54-162, looked up)
chain: AVINTFDGVADYLIRYKRLPDNYITKSQASALGWVASKGNLAEVAPGKSIGGDVFSNREGRLPSASGRTWREADINYVSGFRNADRLVYSSDWLIYKTTDHYATFTRIR
notes: binase, secreted ribonuclease of Bacillus pumilus (formerly Bacillus intermedius); also called B. pumilus secreted RNase; Bacillus intermedius RNase; source: isolated from B. pumilus culture fluid, purified
  stoichiometry N: 2
